Values of other authors in article PMC4017372.

Columns and labels:
[1] = target: HypB (Helicobacter pylori) (UniProt O25560)
[2] = target: UreE (Helicobacter pylori) (UniProt B5Z672); experiment: ITC
UniProt B5Z672, sequence (B5Z672 whole entry): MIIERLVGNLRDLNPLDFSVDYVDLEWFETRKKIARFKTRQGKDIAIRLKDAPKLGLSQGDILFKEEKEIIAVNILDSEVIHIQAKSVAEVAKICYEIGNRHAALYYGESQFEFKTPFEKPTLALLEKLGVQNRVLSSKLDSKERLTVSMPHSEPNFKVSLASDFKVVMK

UniProt O25560, sequence (O25560 whole entry): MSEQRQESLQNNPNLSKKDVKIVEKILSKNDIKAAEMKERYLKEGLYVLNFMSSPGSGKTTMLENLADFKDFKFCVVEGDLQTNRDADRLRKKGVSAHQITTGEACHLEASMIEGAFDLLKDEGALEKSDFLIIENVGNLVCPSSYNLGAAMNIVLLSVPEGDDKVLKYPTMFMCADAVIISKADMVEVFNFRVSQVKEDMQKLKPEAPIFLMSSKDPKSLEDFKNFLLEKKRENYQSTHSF

Row | Substance | Kd [1] [µM] | Kd [2] [µM]
1 | HypA (from UniProt P0A0U5) | 52 | 
2 | UreG (from UniProt B6JPH1) |  | 4
